In patent US20250281611A1 (BIOSCEPTRE AUST, published 2025):

T1: CD19 (UniProt P15391 20-556, limits assumed)
T1 construct: whole, on cells; also called CD19 on JeKo-1
T1 sequence (looked up): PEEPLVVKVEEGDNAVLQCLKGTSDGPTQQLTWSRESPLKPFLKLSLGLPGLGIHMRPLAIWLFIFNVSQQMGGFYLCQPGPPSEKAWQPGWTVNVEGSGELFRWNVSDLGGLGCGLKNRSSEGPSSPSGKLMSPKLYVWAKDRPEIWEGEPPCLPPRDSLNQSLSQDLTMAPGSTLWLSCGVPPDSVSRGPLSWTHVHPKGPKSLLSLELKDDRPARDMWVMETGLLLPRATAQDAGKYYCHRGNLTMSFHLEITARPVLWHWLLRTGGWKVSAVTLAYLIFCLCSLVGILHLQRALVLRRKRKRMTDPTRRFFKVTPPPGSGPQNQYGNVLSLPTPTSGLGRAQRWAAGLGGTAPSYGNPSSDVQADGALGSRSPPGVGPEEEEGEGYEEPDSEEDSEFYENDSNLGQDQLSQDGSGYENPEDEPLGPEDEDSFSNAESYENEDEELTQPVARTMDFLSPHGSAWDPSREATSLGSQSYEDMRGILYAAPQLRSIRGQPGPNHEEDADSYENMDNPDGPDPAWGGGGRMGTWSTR


Tests used:
nfP2X7 CAR 1 [1] = target: T2, nfP2X7 CAR 1; assay: flow cytometry, nfP2X7 CAR 1 T cells (EGFR+ gate), anti-His-FITC detection
T2 construct: CAR-positive cells gated by the co-expressed EGFR marker; also called nfP2X7 targeted CAR; nfP2X7 CAR on EGFR+ T cells
Description: (§1) nfP2X₇ CAR T cells were incubated with different BRiDGE variants at saturating concentrations. […] The MFI intensity correlates with the number of secondary bound antibodies bound to the BRiDGEs that are only detected if they are bound to the CAR T cells. EGFR was used as a marker gene to detect the CAR expression. Thus, the EGFR+ T cell population was defined as the CAR expressing cells and the EGFR− T cell population was defined as the CAR negative subset. MFI: median fluorescence intensity. EGFR: epidermal growth factor receptor. BLItz: Bio-Layer interferometry (BLI) technology using HIS-tag identification tips. HIS-tag MFI Ratio: relative index that is calculated by the testing condition MFI divided by the control MFI, which corresponds to the MFI measured on EGFR+ T cells (defined as CAR positive cells) divided by the MFI measured on the EGFR− T cells (defined as CAR negative cells). […] The higher the MFIR, the stronger the binding.

nfP2X7 CAR 1 [2] = target: T2, nfP2X7 CAR 1; assay: flow cytometry, anti-His-FITC, MFI on EGFR+ (CAR+) over EGFR- (CAR-) T cells
Description: as §1

nfP2X7 CAR 1 [3] = target: T2, nfP2X7 CAR 1; assay: flow cytometry, anti-His-FITC, MFI on EGFR+ (CAR+) T cells over background 0.44
Description: as §1

CD19 [4] = target: T1, CD19; assay: flow cytometry, JeKo-1 cells, BIL03s-AF647 detection, MFI over no-bridge control
Description: (§2) JeKo-1 cells were incubated with different CD19 BRiDGE variants at saturating concentrations. […] The MFI intensity correlates with the number of secondary bound antibodies bound to the CD19 BRiDGE variants that are only detected if they are bound to the JeKo-1 cells. MFI: median fluorescence intensity. BLitz: Bio-Layer interferometry (BLI) technology using HIS-tag identification tips. […] The higher the MFIR, the stronger the binding.

CD19 [5] = target: T1, CD19; assay: flow cytometry, JeKo-1 cells, bridge at saturating conc., BIL03s-AF647 detection
Description: as §2

CD19 [6] = target: T1, CD19; assay: flow cytometry, JeKo-1 cells, anti-His-FITC detection, MFI over no-bridge control
Description: as §2

CD19 [7] = target: T1, CD19; assay: flow cytometry, JeKo-1 cells, bridge at saturating conc., anti-His-FITC detection
Description: as §2

Row | Binder | MFI HisTag FITC in EGFR+ Population (nfP2X7 CAR 1 [1]) | HisTag MFI Ratio of EGFR+/EGFR- (nfP2X7 CAR 1 [2]) | HisTag MFI Ratio (background 0.44) (nfP2X7 CAR 1 [3]) | MFIR BIL03 AF647 (CD19 [4]) | MFI Bil03 AF647 (CD19 [5]) | MFIR HisTag FITC (CD19 [6]) | MFI HisTag FITC (CD19 [7])
1 | CD19 BRIDGE variant B17 (Fab) heavy: EVQLVESGGGLVKPGGSLKLSCAASGYTFTSYVMHWVRQAPGKGLEWIGYINPYNDGTKYNEKFQGRVTISSDKSISTAYMELSSLRSEDTAMYYCARGTYYYGTRVFDYWGQGTLVTVSSASTKGPSVFPLAPSSKSTSGGTAALGCLVKDYFPEPVTVSWNSGALTSGVHTFPAVLQSSGLYSLSSVVTVPSSSLGTQTYICNVNHKPSNTKVDKKVEPKSCHHHHHH light: GHNYTTRNILPGLNITSTFHKTSGSGKGSEPKSSDKTHTGGGGSDIVMTQSPATLSLSPGERATLSCRSSKSLQNVNGNTYLYWFQQKPGQSPQLLIYRMSNLNSGVPDRFSGSGSGTEFTLTISSLEPEDFAVYYCMQHLEYPITFGAGTKLEIKRTVAAPSVFIFPPSDEQLKSGTASVVCLLNNFYPREAKVQWKVDNALQSGNSQESVTEQDSKDSTYSLSSTLTLSKADYEKHKVYACEVTHQGLSSPVTKSFNRGEC | 2.25 | 4.2 | 5.1 | 20.2 | 9.3 | 3.87 | 2.98
2 | CD19 BRIDGE variant B21 (Fab) heavy: EVQLVESGGGLVKPGGSLKLSCAASGYTFTSYVMHWVRQAPGKGLEWIGYINPYNDGTKYNEKFQGRVTISSDKSISTAYMELSSLRSEDTAMYYCARGTYYYGTRVFDYWGQGTLVTVSSASTKGPSVFPLAPSSKSTSGGTAALGCLVKDYFPEPVTVSWNSGALTSGVHTFPAVLQSSGLYSLSSVVTVPSSSLGTQTYICNVNHKPSNTKVDKKVEPKSCHHHHHH light: DFPGHNYTTRNILPGLNITSGGGGSEPKSSDKTHTDIVMTQSPATLSLSPGERATLSCRSSKSLQNVNGNTYLYWFQQKPGQSPQLLIYRMSNLNSGVPDRFSGSGSGTEFTLTISSLEPEDFAVYYCMQHLEYPITFGAGTKLEIKRTVAAPSVFIFPPSDEQLKSGTASVVCLLNNFYPREAKVQWKVDNALQSGNSQESVTEQDSKDSTYSLSSTLTLSKADYEKHKVYACEVTHQGLSSPVTKSFNRGEC | 2.19 | 4.1 | 5 | 8.83 | 4.06 | 3.32 | 2.56
3 | CD19 BRIDGE variant B23 (Fab) heavy: EVQLVESGGGLVKPGGSLKLSCAASGYTFTSYVMHWVRQAPGKGLEWIGYINPYNDGTKYNEKFQGRVTISSDKSISTAYMELSSLRSEDTAMYYCARGTYYYGTRVFDYWGQGTLVTVSSASTKGPSVFPLAPSSKSTSGGTAALGCLVKDYFPEPVTVSWNSGALTSGVHTFPAVLQSSGLYSLSSVVTVPSSSLGTQTYICNVNHKPSNTKVDKKVEPKSCHHHHHH light: DFPGHNYTTRNILPGLNITSTFHKTSGSGKGSEPKSSDKTHTDIVMTQSPATLSLSPGERATLSCRSSKSLQNVNGNTYLYWFQQKPGQSPQLLIYRMSNLNSGVPDRFSGSGSGTEFTLTISSLEPEDFAVYYCMQHLEYPITFGAGTKLEIKRTVAAPSVFIFPPSDEQLKSGTASVVCLLNNFYPREAKVQWKVDNALQSGNSQESVTEQDSKDSTYSLSSTLTLSKADYEKHKVYACEVTHQGLSSPVTKSFNRGEC | 2.34 | 4.4 | 5.3 | 14.8 | 6.82 | 3.1 | 2.39
4 | CD19 BRIDGE variant B22 (Fab) heavy: EVQLVESGGGLVKPGGSLKLSCAASGYTFTSYVMHWVRQAPGKGLEWIGYINPYNDGTKYNEKFQGRVTISSDKSISTAYMELSSLRSEDTAMYYCARGTYYYGTRVFDYWGQGTLVTVSSASTKGPSVFPLAPSSKSTSGGTAALGCLVKDYFPEPVTVSWNSGALTSGVHTFPAVLQSSGLYSLSSVVTVPSSSLGTQTYICNVNHKPSNTKVDKKVEPKSCHHHHHH light: DFPGHNYTTRNILPGLNITSTFHKTSGSGKEPKSSDKTHTDIVMTQSPATLSLSPGERATLSCRSSKSLQNVNGNTYLYWFQQKPGQSPQLLIYRMSNLNSGVPDRFSGSGSGTEFTLTISSLEPEDFAVYYCMQHLEYPITFGAGTKLEIKRTVAAPSVFIFPPSDEQLKSGTASVVCLLNNFYPREAKVQWKVDNALQSGNSQESVTEQDSKDSTYSLSSTLTLSKADYEKHKVYACEVTHQGLSSPVTKSFNRGEC | 2.21 | 4 | 5 | 10.5 | 4.85 | 3.3 | 2.54
5 | CD19 BRIDGE variant B18 (Fab) heavy: EVQLVESGGGLVKPGGSLKLSCAASGYTFTSYVMHWVRQAPGKGLEWIGYINPYNDGTKYNEKFQGRVTISSDKSISTAYMELSSLRSEDTAMYYCARGTYYYGTRVFDYWGQGTLVTVSSASTKGPSVFPLAPSSKSTSGGTAALGCLVKDYFPEPVTVSWNSGALTSGVHTFPAVLQSSGLYSLSSVVTVPSSSLGTQTYICNVNHKPSNTKVDKKVEPKSCHHHHHH light: GHNYTTRNILPGLNITSTFHKTSGSGKGGGGSEPKSSDKTHTGGGGSDIVMTQSPATLSLSPGERATLSCRSSKSLQNVNGNTYLYWFQQKPGQSPQLLIYRMSNLNSGVPDRFSGSGSGTEFTLTISSLEPEDFAVYYCMQHLEYPITFGAGTKLEIKRTVAAPSVFIFPPSDEQLKSGTASVVCLLNNFYPREAKVQWKVDNALQSGNSQESVTEQDSKDSTYSLSSTLTLSKADYEKHKVYACEVTHQGLSSPVTKSFNRGEC | 2.25 | 4.2 | 5.1 | 23.7 | 10.9 | 3.94 | 3.03
6 | CD19 BRIDGE variant B19 (Fab, V domains shown) VH: EVQLVESGGGLVKPGGSLKLSCAASGYTFTSYVMHWVRQAPGKGLEWIGYINPYNDGTKYNEKFQGRVTISSDKSISTAYMELSSLRSEDTAMYYCARGTYYYGTRVFDYWGQGTLVTVSS VL: DIVMTQSPATLSLSPGERATLSCRSSKSLQNVNGNTYLYWFQQKPGQSPQLLIYRMSNLNSGVPDRFSGSGSGTEFTLTISSLEPEDFAVYYCMQHLEYPITFGAGTKLEIKR | 2.16 | 4.1 | 4.9 | 10.7 | 4.9 | 3.51 | 2.7
7 | CD19 BRIDGE variant B20 (Fab, V domains shown) VH: EVQLVESGGGLVKPGGSLKLSCAASGYTFTSYVMHWVRQAPGKGLEWIGYINPYNDGTKYNEKFQGRVTISSDKSISTAYMELSSLRSEDTAMYYCARGTYYYGTRVFDYWGQGTLVTVSS VL: DIVMTQSPATLSLSPGERATLSCRSSKSLQNVNGNTYLYWFQQKPGQSPQLLIYRMSNLNSGVPDRFSGSGSGTEFTLTISSLEPEDFAVYYCMQHLEYPITFGAGTKLEIKR | 2.11 | 4.1 | 4.8 | 9.07 | 4.17 | 3.39 | 2.61
8 | CD19 BRIDGE variant B25 (Fab, V domains shown) VH: EVQLVESGGGLVKPGGSLKLSCAASGYTFTSYVMHWVRQAPGKGLEWIGYINPYNDGTKYNEKFQGRVTISSDKSISTAYMELSSLRSEDTAMYYCARGTYYYGTRVFDYWGQGTLVTVSS VL: DIVMTQSPATLSLSPGERATLSCRSSKSLQNVNGNTYLYWFQQKPGQSPQLLIYRMSNLNSGVPDRFSGSGSGTEFTLTISSLEPEDFAVYYCMQHLEYPITFGAGTKLEIKR | 2.28 | 4 | 5.2 | 10.9 | 5 | 3.01 | 2.32
